The results in this text go back to publication PMC7083938 (2020).

One assay addresses T1, Robo1 FN1 mouse (Mus musculus (Mouse), UniProt O89026).
T1 chain: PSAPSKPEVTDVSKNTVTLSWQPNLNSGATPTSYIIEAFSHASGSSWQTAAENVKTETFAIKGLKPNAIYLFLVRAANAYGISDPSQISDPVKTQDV
Description: SPR equilibrium.

The next assay has as its target T2, Robo3 FN1 mouse (Mus musculus (Mouse), UniProt Q9Z2I4).
T2 chain: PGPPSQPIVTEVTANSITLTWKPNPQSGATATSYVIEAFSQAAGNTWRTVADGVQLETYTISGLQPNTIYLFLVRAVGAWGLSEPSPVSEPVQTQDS
The assay is described as follows: SPR equilibrium.

B1: NELL2 mouse (protein)
chain: DIDECAEGRHYCRENTMCVNTPGSFMCICKTGYIRIDDYSCTEHDECLTNQHNCDENALCFNTVGGHNCVCKPGYTGNGTTCK
In the case of B1, the figures for the Kd with Robo1 FN1 mouse and with Robo3 FN1 mouse were 13.8 µM and 0.71 µM, respectively.
